Substrate: Cc1cc(=O)oc2c(F)c(OP(=O)(O)O)c(F)cc12
Assay: purified protein, by the assay type
Parameters: DiFMUP hydrolysis by purified PTPs, fluorescence Ex355/Em460, initial rates over 10 min; Michaelis-Menten and Lineweaver-Burk Km
Procedure: The enzymatic activity of each PTP was evaluated using 6,8-difluoro-4-methylumbelliferyl phosphate (DiFMUP) as the surrogate substrate. To reach within the range of the initial rate (v0) during the measurement for 10 min, the pH and concentration of each PTP were optimized and are listed in Table S3. To determine the Km values, each PTP with optimized concentration was added to the reaction buffer (20 mM Bis-Tris at pH 6.0 or Tris at pH 7.0 and 8.0, 150 mM NaCl, 2.5 mM dithiothreitol (DTT), 0.01% Triton X-100) containing various concentrations of DiFMUP to obtain a final volume of 100 μL in a 96-well plate. Fluorescence intensities were measured once every minute for a complete 10 min duration using a Victor™ X4 Multilabel Plate Reader (Perkin Elmer, Waltham, MA, USA) at excitation/emission = 355 nm/460 nm. The initial rates of the reaction were determined using a previously described procedure for calculating the amount of product formation. To screen a library of 1033 natural products (Chengdu Biopurify Phytochemicals Ltd., Chengdu, China) against 20 PTPs, each PTP with an optimized concentration was added to the reaction buffer with an optimized pH containing DiFMUP (2 × Km for each PTP) after adding each compound (20 μM). […] The IC50 values were estimated using a sigmoid plot in GraphPad Prism 5 software (GraphPad Software Inc., San Diego, CA, USA). The Hill coefficient (nH), the degree of cooperativity, was calculated according to a previously published method. To determine the inhibition constant (Ki) and identify the inhibition mode of EG, various concentrations of EG (2.5, 5, 10, and 20 μM) were assayed with various concentrations of DiFMUP (260, 130, 65, and 32.5 μM). Kinetic parameters were obtained using Dixon plots for Ki and Lineweaver-Burk plots for the inhibition mode.

Row | Protein | Km
1 | PTPN3 (Homo sapiens) (protein) MTSRLRALGGRINNIRTSELPKEKTRSEVICSIHFLDGVVQTFKVTKQDTGQVLLDMVHNHLGVTEKEYFGLQHDDDSVDSPRWLEASKAIRKQLKGGFPCTLHFRVRFFIPDPNTLQQEQTRHLYFLQLKMDICEGRLTCPLNSAVVLASYAVQSHFGDYNSSIHHPGYLSDSHFIPDQNEDFLTKVESLHEQHSGLKQSEAESCYINIARTLDFYGVELHSGRDLHNLDLMIGIASAGVAVYRKYICTSFYPWVNILKISFKRKKFFIHQRQKQAESREHIVAFNMLNYRSCKNLWKSCVEHHTFFQAKKLLPQEKNVLSQYWTMGSRNTKKSVNNQYCKKVIGGMVWNPAMRRSLSVEHLETKSLPSRSPPITPNWRSPRLRHEIRKPRHSSADNLANEMTYITETEDVFYTYKGSLAPQDSDSEVSQNRSPHQESLSENNPAQSYLTQKSSSSVSPSSNAPGSCSPDGVDQQLLDDFHRVTKGGSTEDASQYYCDKNDNGDSYLVLIRITPDEDGKFGFNLKGGVDQKMPLVVSRINPESPADTCIPKLNEGDQIVLINGRDISEHTHDQVVMFIKASRESHSRELALVIRRRAVRSFADFKSEDELNQLFPEAIFPMCPEGGDTLEGSMAQLKKGLESGTVLIQFEQLYRKKPGLAITFAKLPQNLDKNRYKDVLPYDTTRVLLQGNEDYINASYVNMEIPAANLVNKYIATQGPLPHTCAQFWQVVWDQKLSLIVMLTTLTERGRTKCHQYWPDPPDVMNHGGFHIQCQSEDCTIAYVSREMLVTNTQTGEEHTVTHLQYVAWPDHGVPDDSSDFLEFVNYVRSLRVDSEPVLVHCSAGIGRTGVLVTMETAMCLTERNLPIYPLDIVRKMRDQRAMMVQTSSQYKFVCEAILRVYEEGLVQMLDPS | 2.0 µM
2 | PTPN7 (Homo sapiens) (protein) MVQAHGGRSRAQPLTLSLGAAMTQPPPEKTPAKKHVRLQERRGSNVALMLDVRSLGAVEPICSVNTPREVTLHFLRTAGHPLTRWALQRQPPSPKQLEEEFLKIPSNFVSPEDLDIPGHASKDRYKTILPNPQSRVCLGRAQSQEDGDYINANYIRGYDGKEKVYIATQGPMPNTVSDFWEMVWQEEVSLIVMLTQLREGKEKCVHYWPTEEETYGPFQIRIQDMKECPEYTVRQLTIQYQEERRSVKHILFSAWPDHQTPESAGPLLRLVAEVEESPETAAHPGPIVVHCSAGIGRTGCFIATRIGCQQLKARGEVDILGIVCQLRLDRGGMIQTAEQYQFLHHTLALYAGQLPEEPSP | 25.5 µM
3 | PTPN9 (Homo sapiens) (protein) MEPATAPRPDMAPELTPEEEQATKQFLEEINKWTVQYNVSPLSWNVAVKFLMARKFDVLRAIELFHSYRETRRKEGIVKLKPHEEPLRSEILSGKFTILNVRDPTGASIALFTARLHHPHKSVQHVVLQALFYLLDRAVDSFETQRNGLVFIYDMCGSNYANFELDLGKKVLNLLKGAFPARLKKVLIVGAPIWFRVPYSIISLLLKDKVRERIQILKTSEVTQHLPRECLPENLGGYVKIDLATWNFQFLPQVNGHPDPFDEIILFSLPPALDWDSVHVPGPHAMTIQELVDYVNARQKQGIYEEYEDIRRENPVGTFHCSMSPGNLEKNRYGDVPCLDQTRVKLTKRSGHTQTDYINASFMDGYKQKNAYIGTQGPLENTYRDFWLMVWEQKVLVIVMTTRFEEGGRRKCGQYWPLEKDSRIRFGFLTVTNLGVENMNHYKKTTLEIHNTEERQKRQVTHFQFLSWPDYGVPSSAASLIDFLRVVRNQQSLAVSNMGARSKGQCPEPPIVVHCSAGIGRTGTFCSLDICLAQLEELGTLNVFQTVSRMRTQRAFSIQTPEQYYFCYKAILEFAEKEGMVSSGQNLLAVESQ | 110 µM

Reference: publication PMC9105384, “Ethyl Gallate Dual-Targeting PTPN6 and PPARγ Shows Anti-Diabetic and Anti-Obese Effects” (International Journal of Molecular Sciences, 2022)
